Experiment [1] concerns the target human VEGF-B (Example 10, form not stated) (human) (UniProt P49765). As to the kind of experiment: BIAcore dissociation rate, ratio. (In general: In SPR one partner is held on a chip, and binding of the other changes the refractive index at the surface.)
The target is the same in experiment [2]. Kind of experiment: competition ELISA, plate bound human VEGF-B, soluble VEGF-B titrated. On the technique in general: ELISA stands for enzyme-linked immunosorbent assay.
For experiment [3] the target is unchanged. As to the kind of experiment: SPR (BIAcore), immobilised human VEGF-B, Fab injected at several concentrations.
The target is the same in experiment [4]. Kind of experiment: SPR (BIAcore), immobilised human VEGF-B.
Experiment [5] has as its target T1, 6×His.mVEGF-B10-108 (murine, UniProt P49766 31-129).
T1 construct: not shown: additional 16 N-terminal amino acids with 6xHis tag and Genenase I cleavage site
T1 sequence: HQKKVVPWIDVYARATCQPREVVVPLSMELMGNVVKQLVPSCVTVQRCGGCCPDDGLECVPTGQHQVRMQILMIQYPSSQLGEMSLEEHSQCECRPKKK
Kind of experiment: ELISA on plate-bound 6×His.mVEGF-B10-108. The method, then: (§1) Monoclonal antibodies raised against hVEGF-B were tested for cross-reactivity with mVEGF-B using a standard ELISA format. mAbs were incubated with plate bound hVEGF-B₁₀₋₁₀₈ or 6×His.mVEGF-B₁₀₋₁₀₈ at a concentration of 1.25 μg/ml and bound mAb visualized using a HRP-conjugated secondary reagent and TMB substrate.

Experiment [6] addresses T2, human VEGF-B10-108 (human, UniProt P49765 31-129).
T2 construct: also called VB108
T2 sequence: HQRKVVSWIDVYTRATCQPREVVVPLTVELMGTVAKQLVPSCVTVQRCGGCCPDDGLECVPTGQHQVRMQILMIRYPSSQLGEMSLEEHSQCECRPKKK
As to the kind of experiment: SPR (BIAcore 2000), VEGF-B10-108 amine-coupled on chip, mAb injected 125-0.98 nM. How it is done:
A Biosensor-based approach was used for kinetic analysis of mAb binding to target VEGF-B using a BIAcore™ 2000 surface plasmon resonance instrument (Biacore AB, Uppsala, Sweden). A biosensor chip was activated for covalent coupling of VEGF-B using N-ethyl-N′-(3-dimethylaminopropyl)-carbodiimide hydrochloride (EDC) and N-hydroxysuccinimide (NHS) according to the supplier's (Biacore AB, Uppsala, Sweden) instructions. A solution of 5 μg/ml VEGF-B₁₀₋₁₀₈ in 20 mM sodium acetate, pH 4.8 was prepared and an aliquot (35 μl) was injected at a flow rate of 2 μl/min to achieve approximately 500-600 response units (RU) of coupled protein. Finally, 1 M ethanolamine was injected as a blocking agent.
For kinetics measurements, two-fold serial dilutions of test antibody starting at 125n M to 0.98 nM were injected in BIAcore™ buffer (20 mM HEPES, pH 7.8, 0.15 M NaCl, 3.4 mM EDTA, 0.005% Tween-20) with 1 mg/ml bovine serum albumin (BSA) at 25° C. at a flow rate of 15 μl/min. Simultaneous analysis of association (kₐ) and dissociation (kd) rate constants using BIAevaluation™ V3.02 software (Biacore AB, Uppsala, Sweden) was used to determine the equilibrium binding constant (KD).

Experiment [7] addresses T1, 6×His.mVEGF-B10-108. Kind of experiment: ELISA on plate-bound antigen, HRP secondary, TMB. The method, then: as §1

B1: 2H10 CDR-grafted human germline Fab (CDR-Fab) (Fab, V domains shown)
VH: QVQLVQSGAEVKKPGASVKVSCKASGYTFTGFWIHWVRQAPGQGLEWMGHINPGNGGTNYNEKFKRRVTMTRDTSISTAYMELSRLRSDDTAVYYCARSYSNYVRAMDYWGQGTLVTVSS
VL: DIQMTQSPSSLSASVGDRVTITCRASQDISNFLNWYQQKPGKAPKLLIYYTSTLHSGVPSRFSGSGSGTDFTLTISSLQPEDFATYYCQQGKTLPPTFGGGTKVEIK
As for B1, in experiment [1], the Relative koff (koff CDR-Fab variant/koff murine-human chimera) is 3.7. In addition, the Relative VEGF-B binding affinity (IC50 CDR-Fab variant/IC50 murine-human chimera) in experiment [2] came to 2.25. In experiment [3], the Kd came out at 0.66 nM.

B2: CDR-Fab framework variant H73 (Fab, V domains shown)
VH: QVQLVQSGAEVKKPGASVKVSCKASGYTFTGFWIHWVRQAPGQGLEWMGHINPGNGGTNYNEKFKRRVTMTRDKSISTAYMELSRLRSDDTAVYYCARSYSNYVRAMDYWGQGTLVTVSS
VL: DIQMTQSPSSLSASVGDRVTITCRASQDISNFLNWYQQKPGKAPKLLIYYTSTLHSGVPSRFSGSGSGTDFTLTISSLQPEDFATYYCQQGKTLPPTFGGGTKVEIK
In the case of B2, the Relative koff (koff CDR-Fab variant/koff murine-human chimera) in experiment [1] turned out to be 1.4. In experiment [4], this molecule came in with a Kd of 0.337 nM and a fold of KD against the 2H10 murine Fab below 3 fold. In experiment [2], this molecule came in with a Relative VEGF-B binding affinity (IC50 CDR-Fab variant/IC50 murine-human chimera) of 1.42.

B3: 2H10 murine Fab (Fab, V domains shown)
VH: QVQLQQPGTELVKPGASVKLSCKASGYTFTGFWIHWVKQRPGQGLEWIGHINPGNGGTNYNEKFKRMATLTVDKSSSTAYMQLSSLTSEDSAVYYCARSYSNYVRAMDYWGQGTSVTVSS
VL: EIQMTQTTSSLSASLGDRVTISCRASQDISNFLNWYQQKPDGTVKLLIYYTSTLHSGVPSRFSGSGSGTDYSLTISNLEQEDIATYFCQQGKTLPPTFGGGTKLEIK
In turn, B3 had an equilibrium dissociation constant (Kd) in experiment [3] of 0.115 nM.

B4: mouse-human chimeric Fab (2H10) (Fab, V domains shown)
VH: QVQLQQPGTELVKPGASVKLSCKASGYTFTGFWIHWVKQRPGQGLEWIGHINPGNGGTNYNEKFKRMATLTVDKSSSTAYMQLSSLTSEDSAVYYCARSYSNYVRAMDYWGQGTSVTVSS
VL: EIQMTQTTSSLSASLGDRVTISCRASQDISNFLNWYQQKPDGTVKLLIYYTSTLHSGVPSRFSGSGSGTDYSLTISNLEQEDIATYFCQQGKTLPPTFGGGTKLEIK
For the molecule B4, the Relative koff (koff CDR-Fab variant/koff murine-human chimera) in experiment [1] is 1. Also, the Relative VEGF-B binding affinity (IC50 CDR-Fab variant/IC50 murine-human chimera) in experiment [2] was found to be 1.

B5: murine monoclonal antibody 2H10 (antibody, V domains shown)
VH: QVQLQQPGTELVKPGASVKLSCKASGYTFTGFWIHWVKQRPGQGLEWIGHINPGNGGTNYNEKFKRMATLTVDKSSSTAYMQLSSLTSEDSAVYYCARSYSNYVRAMDYWGQGTSVTVSS
VL: EIQMTQTTSSLSASLGDRVTISCRASQDISNFLNWYQQKPDGTVKLLIYYTSTLHSGVPSRFSGSGSGTDYSLTISNLEQEDIATYFCQQGKTLPPTFGGGTKLEIK
notes: Whole murine mAb from hybridoma; also called mAb 2H10
With B5, the binding result in experiment [5] is given as “binds”. For the same molecule, in experiment [6], the dissociation constant Kd is 0.18 nM, the koff was found to be 6.77e-05 s⁻¹ and the kon worked out at 385000 M⁻¹ s⁻¹.

B6: murine monoclonal antibody 4E12 (antibody, V domains shown)
VH: QVQPQQPGAELVKPGASVKMSCKASGDTFTNSWIGWVTQRPGQGLEWIGDIFPGSGHTNYNEKFKNRATLTVDTSSSTAYMLLSSLTSDDSAVYYCVIENYAWFAYWGQGTLVTVSA
VL: DIVMTQSQKFMSSSVGDRVSVTCKASQNVNTNVAWYQQKQGQSPRPLIYSASSRCSGVPDRFTGSGFGTDFTLTISNVQSEDLAEYFCQQYHSFPLTFGAGAKLDLK
notes: Whole murine mAb from hybridoma; also called mAb 4E12
Regarding B6, in experiment [7], the binding result is “no binding (tested: 1.25 µg/ml)”. In experiment [6], this molecule yielded a Kd of 2.71 nM, a koff of 0.000132 s⁻¹ and an on-rate (kon) of 48700 M⁻¹ s⁻¹.

B7: murine monoclonal antibody 1C6 (antibody, V domains shown)
VH: QVQLQQSGPELVKPGASVRISCKASGYTFTTFYIHWVKQRPGQGLEWIAWFYPGNVNTNYNEKFKDKATLTADKSSSAAYLQLNSLTSEDSAVYFCTRSPYYGYVFDFWGQGTTLTVSS
VL: DIVMTQSHKFMSTSVGDRVSITCKASQDVGSAVAWYQQKPGQSPKLLIYWASTRHTGVPDRFTGSGSGTDFTFTISNVQSEDLADYFCQQYSSSLTFGAGATKLEL
notes: Whole murine mAb from hybridoma; also called mAb 1C6
On to B7, for which the binding result in experiment [5] is on record as “binds”. Also, in experiment [6], the dissociation constant (Kd) came out at 2.82 nM, the off-rate (koff) came to 0.000153 s⁻¹ and the association rate constant (kon) worked out at 54500 M⁻¹ s⁻¹.

One may read the Kd as the equilibrium constant for the complex coming apart. What is called koff is the first-order rate constant of dissociation. The low end stands for slow dissociation, the high end for fast dissociation. What is called kon is a measure of how fast the partners come together.
